Measurements taken from patent US20050261190A1 (SK, published 2005).

Key:
[1] = molecular target: heat shock protein 70 inducible (Hsp70), endogenous (human, UniProt P0DMV8 2-641); test: cell-based or functional assay
[2] = molecular target: T1, polyubiquitin chains (Ub2-7), synthetic Lys48-linked (UniProt P0CG47 1-76, units linked by Lys48 isopeptide bonds); test: GST pull-down, immunoblot with anti-ubiquitin
T1 construct: A mixture of chains of 2 to 7 ubiquitin units; also called multiubiquitin chains

[3] = molecular target: T2, heat shock protein 70 cognate (Hsc70), endogenous (human, UniProt P11142 2-646); test: co-immunoprecipitation with anti-Flag M2 agarose from HEK293T lysate, 2D gel, MALDI-TOF MS (table of Flag-hFAF1 binding proteins)
T2 construct: In the 1D western blots it is detected together with Hsp70 by one anti-Hsc70/Hsp70 monoclonal antibody; statements on 'Hsc70/Hsp70' are written once for each of the two; also called member of Hsc70/Hsp70
Excerpt: Protein spots detected in the autoradiogram were cut out from the corresponding silver stained gel and subjected to in-gel digestion with trypsin and mass peptide fingerprint analyses using MALDI-TOF MS.

bacterial Hsp70, DnaK = bacterial Hsp70, DnaK (E. coli, UniProt P0A6Y8 2-638); test: not told (data not shown)
Chain of bacterial Hsp70, DnaK (P0A6Y8 2-638 limits assumed): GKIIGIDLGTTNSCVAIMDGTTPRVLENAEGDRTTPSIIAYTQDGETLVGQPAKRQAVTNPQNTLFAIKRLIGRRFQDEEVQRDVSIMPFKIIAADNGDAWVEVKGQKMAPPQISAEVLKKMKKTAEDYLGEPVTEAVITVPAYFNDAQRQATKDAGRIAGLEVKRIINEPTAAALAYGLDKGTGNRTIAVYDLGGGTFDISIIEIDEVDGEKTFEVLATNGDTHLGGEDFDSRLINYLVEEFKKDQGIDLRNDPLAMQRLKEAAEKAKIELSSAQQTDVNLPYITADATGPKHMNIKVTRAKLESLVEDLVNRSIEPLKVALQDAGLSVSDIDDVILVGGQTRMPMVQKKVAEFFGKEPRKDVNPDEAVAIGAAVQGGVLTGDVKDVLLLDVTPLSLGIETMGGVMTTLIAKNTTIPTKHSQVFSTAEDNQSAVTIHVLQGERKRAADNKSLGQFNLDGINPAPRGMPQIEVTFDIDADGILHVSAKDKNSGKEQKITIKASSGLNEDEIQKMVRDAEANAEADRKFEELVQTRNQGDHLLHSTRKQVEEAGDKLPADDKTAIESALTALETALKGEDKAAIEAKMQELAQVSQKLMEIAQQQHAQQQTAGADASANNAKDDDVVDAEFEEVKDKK

Chain of heat shock protein 70 inducible (Hsp70), endogenous (P0DMV8 2-641): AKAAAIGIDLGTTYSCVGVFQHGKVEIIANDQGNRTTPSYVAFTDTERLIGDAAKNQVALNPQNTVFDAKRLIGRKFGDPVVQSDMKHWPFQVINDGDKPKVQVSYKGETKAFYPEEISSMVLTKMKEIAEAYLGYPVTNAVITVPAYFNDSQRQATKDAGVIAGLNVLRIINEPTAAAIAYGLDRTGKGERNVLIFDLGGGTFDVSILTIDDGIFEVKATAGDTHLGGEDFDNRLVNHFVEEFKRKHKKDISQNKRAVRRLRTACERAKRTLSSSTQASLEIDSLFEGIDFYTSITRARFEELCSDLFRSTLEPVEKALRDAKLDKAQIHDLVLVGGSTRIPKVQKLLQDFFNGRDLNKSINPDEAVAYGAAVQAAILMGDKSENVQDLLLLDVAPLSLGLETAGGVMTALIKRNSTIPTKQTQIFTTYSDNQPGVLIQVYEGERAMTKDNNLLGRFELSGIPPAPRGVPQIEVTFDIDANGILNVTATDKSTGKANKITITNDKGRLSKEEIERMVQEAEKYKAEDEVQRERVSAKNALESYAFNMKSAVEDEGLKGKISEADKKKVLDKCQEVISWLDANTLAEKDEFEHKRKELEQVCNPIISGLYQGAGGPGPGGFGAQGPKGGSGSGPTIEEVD
T2 sequence (P11142 2-646 limits assumed): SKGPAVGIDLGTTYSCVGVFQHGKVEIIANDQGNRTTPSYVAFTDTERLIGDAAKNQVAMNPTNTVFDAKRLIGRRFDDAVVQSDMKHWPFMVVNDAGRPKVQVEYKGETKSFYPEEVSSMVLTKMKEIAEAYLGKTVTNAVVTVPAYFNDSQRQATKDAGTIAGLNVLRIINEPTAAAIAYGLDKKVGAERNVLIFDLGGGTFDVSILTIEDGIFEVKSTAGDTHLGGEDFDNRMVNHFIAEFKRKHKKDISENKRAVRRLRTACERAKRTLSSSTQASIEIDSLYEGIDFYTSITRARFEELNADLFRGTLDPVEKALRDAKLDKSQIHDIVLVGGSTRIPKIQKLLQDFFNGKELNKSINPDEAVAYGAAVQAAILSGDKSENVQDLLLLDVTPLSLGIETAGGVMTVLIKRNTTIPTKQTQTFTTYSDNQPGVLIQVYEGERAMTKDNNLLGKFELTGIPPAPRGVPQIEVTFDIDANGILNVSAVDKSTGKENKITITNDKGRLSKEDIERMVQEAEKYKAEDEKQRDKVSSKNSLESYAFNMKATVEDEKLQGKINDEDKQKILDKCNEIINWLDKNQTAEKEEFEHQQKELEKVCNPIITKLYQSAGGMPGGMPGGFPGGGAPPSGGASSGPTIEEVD

B1: Flag-hFAF1[366-650] (other, not shown: small tags and cut ends)
chain: YVKARDRKLLAIYLHHDESVLTNVFCSQMLCAESIVSYLSQNFITWAWDLTKDSNRARFLTMCNRHFGSVVAQTIRTQKTDQKPLFLIIMGKRSSNEVLNVIQGNTTVDELMMRLMAAMEIFTAQQQEDIKDGDEREARENVKREQDEAYRLSLEADRAKREAREREMAEQFRLEQIRKEQEEEREAIRLSLEQALPPEPKEENAEPVSKLRIRTPSGEFLERRFLASNKLQIVFDFVASKGFPWDEYKLLSTFPRRDVTQLDPNKSLLEVKLFPQETLFLEAKE
- SAPK/JNK activity after heat shock [1]: 13 fold

B2: GST-hFAF1[82-650] (other)
chain: SAFRPVMPSRQIVERQPRMLDFRVEYRDRNVDVVLEDTCTVGEIKQILENELQIPVSKMLLKGWKTGDVEDSTVLKSLHLPKNNSLYVLTPDLPPPSSSSHAGALQESLNQNFMLIITHREVQREYNLNFSGSSTIQEVKRNVYDLTSIPVRHQLWEGWPTSATDDSMCLAESGLSYPCHRLTVGRRSSPAQTREQSEEQITDVHMVSDSDGDDFEDATEFGVDDGEVFGMASSALRKSPMMPENAENEGDALLQFTAEFSSRYGDCHPVFFIGSLEAAFQEAFYVKARDRKLLAIYLHHDESVLTNVFCSQMLCAESIVSYLSQNFITWAWDLTKDSNRARFLTMCNRHFGSVVAQTIRTQKTDQKPLFLIIMGKRSSNEVLNVIQGNTTVDELMMRLMAAMEIFTAQQQEDIKDGDEREARENVKREQDEAYRLSLEADRAKREAREREMAEQFRLEQIRKEQEEEREAIRLSLEQALPPEPKEENAEPVSKLRIRTPSGEFLERRFLASNKLQIVFDFVASKGFPWDEYKLLSTFPRRDVTQLDPNKSLLEVKLFPQETLFLEAKE
notes: Immobilized on glutathione sepharose; also called amino acid 82-650; not shown: glutathione S-transferase (GST) tag
- binding result [2]: no binding

B3: Flag-tagged hFAF1 (human Fas associated factor 1, full form) (other)
chain: MASNMDREMILADFQACTGIENIDEAITLLEQNNWDLVAAINGVIPQENGILQSEYGGETIPGPAFNPASHPASAPTSSSSSAFRPVMPSRQIVERQPRMLDFRVEYRDRNVDVVLEDTCTVGEIKQILENELQIPVSKMLLKGWKTGDVEDSTVLKSLHLPKNNSLYVLTPDLPPPSSSSHAGALQESLNQNFMLIITHREVQREYNLNFSGSSTIQEVKRNVYDLTSIPVRHQLWEGWPTSATDDSMCLAESGLSYPCHRLTVGRRSSPAQTREQSEEQITDVHMVSDSDGDDFEDATEFGVDDGEVFGMASSALRKSPMMPENAENEGDALLQFTAEFSSRYGDCHPVFFIGSLEAAFQEAFYVKARDRKLLAIYLHHDESVLTNVFCSQMLCAESIVSYLSQNFITWAWDLTKDSNRARFLTMCNRHFGSVVAQTIRTQKTDQKPLFLIIMGKRSSNEVLNVIQGNTTVDELMMRLMAAMEIFTAQQQEDIKDGDEREARENVKREQDEAYRLSLEADRAKREAREREMAEQFRLEQIRKEQEEEREAIRLSLEQALPPEPKEENAEPVSKLRIRTPSGEFLERRFLASNKLQIVFDFVASKGFPWDEYKLLSTFPRRDVTQLDPNKSLLEVKLFPQETLFLEAKE
notes: Transiently overexpressed in HEK293T cells and pulled out of the lysate with anti-Flag M2 agarose; also called Flag-hFAF1; pFlag-CMV-2/hFAF1; not shown: Flag tag from the pFlag-CMV-2 vector
- SAPK/JNK activity after heat shock [1]: 16 fold
- binding result [3]: binds

B4: purified recombinant hFAF1 (other)
chain: B3 chain
notes: also called hFAF1 cleaved by thrombin from GST-hFAF1
- binding result (bacterial Hsp70, DnaK): binds
